This is an account of results in patent US20240287184A1 (GUANGDONG FAPON BIOPHARMA, published 2024).

For assay [1], the target named is T1, human CD28-hFc (human, UniProt P10747 19-152).
T1 construct: Commercial protein; also called CD28 (ACRO); not shown: human Fc (hFc)
In words: ELISA, antigen coated at 1 µg/mL. The source says: (§1) A horse radish peroxidase (HRP)-coupled anti-human IgG (F) was used as the secondary antibody. After developed with TMB and terminated, it was read for an OD450 value with a microplate reader.

Assay [2] has as its target T2, human ICOS-hFc (human, UniProt Q9Y6W8 21-140).
T2 construct: Commercial protein; also called ICOS (ACRO); not shown: human Fc (hFc)
T2 sequence (looked up): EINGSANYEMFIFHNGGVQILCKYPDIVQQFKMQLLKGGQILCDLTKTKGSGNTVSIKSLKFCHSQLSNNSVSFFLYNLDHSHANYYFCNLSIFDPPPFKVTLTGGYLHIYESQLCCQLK
In words: ELISA, antigen coated at 1 µg/mL.
Description: as §1
For orientation: An ELISA detects its analyte on a solid surface through an enzyme-linked reagent.

Assay [3] deals with T3, human CTLA4-hFc (human, UniProt P16410 37-162, limits assumed).
T3 construct: Commercial protein; also called CTLA-4 (ACRO); not shown: human Fc (hFc)
T3 sequence (P16410 37-162 limits assumed): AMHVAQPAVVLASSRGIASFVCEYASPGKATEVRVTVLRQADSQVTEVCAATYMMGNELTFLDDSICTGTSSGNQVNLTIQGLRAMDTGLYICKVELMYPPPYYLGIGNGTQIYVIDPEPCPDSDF
In words: ELISA, antigen coated at 1 µg/mL.
Description: as §1

The target of assay [4] is T4, mouse PD1 expressed on the surface of CHO cells (CHO-mousePD1) (mouse, UniProt Q02242 25-288).
T4 construct: whole, on cells; also called CHO-mPD1
T4 sequence (looked up): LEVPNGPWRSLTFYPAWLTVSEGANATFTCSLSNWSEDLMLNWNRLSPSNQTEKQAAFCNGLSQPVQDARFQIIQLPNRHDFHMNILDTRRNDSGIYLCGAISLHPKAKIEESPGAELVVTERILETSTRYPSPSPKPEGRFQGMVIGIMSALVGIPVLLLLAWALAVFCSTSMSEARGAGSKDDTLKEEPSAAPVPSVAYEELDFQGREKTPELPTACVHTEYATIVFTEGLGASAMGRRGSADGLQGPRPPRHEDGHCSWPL
The assay is described as follows: flow cytometry on CHO-mousePD1 cells. How it is done: (§2) In order to evaluate the binding of the anti-PD-1 mouse monoclonal antibody to the CHO-h PD1, 2×10⁵ CHO-hPD1 cells and an anti-PD-1 mouse monoclonal antibody diluted in concentration gradient (with an initial concentration of 10 μg/mL, and diluted in 3-fold gradient) were added into a 96-well plate, and incubated at 4° C. for 30 minutes. The cells were washed once with a buffer (PBS containing 3% BSA) and then added with a PE-labeled anti-mouse IgG (Fc) Ab (Biolegend) fluorescent secondary antibody, incubated at 4° C. for 30 minutes, then washed once with the buffer and subsequently resuspended in PBS. Thereafter, the cell suspension was subjected to flow cytometric analysis by CytoFlex (Beckman flow cytometer), and the quantity of the antibody bound to the cells was measured according to the mean fluorescence intensity (MFI) of the staining. The same method was used for evaluating the binding of the anti-PD-1 mouse monoclonal antibody to the CHO-cyno cells and the CHO-mousePD1 (sometimes abbreviated as “CHO-mPD1” in the application) cells.
Background: In flow cytometry, cells or beads pass a laser one at a time.

Assay [5] deals with T5, recombinant human PD-1 expressed on the surface of CHO cells (CHO-hPD1) (human, UniProt Q15116 25-288).
T5 construct: whole, on cells; also called CHO-PD1; hPD1-transfected CHO cells
T5 sequence (Q15116 25-288): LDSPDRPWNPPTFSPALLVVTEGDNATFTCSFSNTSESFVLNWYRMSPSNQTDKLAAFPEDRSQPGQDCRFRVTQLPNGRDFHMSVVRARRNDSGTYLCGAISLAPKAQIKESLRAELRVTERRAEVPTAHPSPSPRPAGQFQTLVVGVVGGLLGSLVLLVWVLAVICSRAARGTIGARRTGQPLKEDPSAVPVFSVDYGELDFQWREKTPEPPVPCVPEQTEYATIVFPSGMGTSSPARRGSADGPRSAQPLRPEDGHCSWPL
The assay is described as follows: flow cytometry on CHO-hPD1 cells. How it is done:
as §2

Assay [6] concerns the target T6, monkey PD1 expressed on the surface of CHO cells (CHO-cynoPD1) (monkey).
T6 construct: whole, on cells
The assay is described as follows: flow cytometry on CHO-cynoPD1 cells. The method, then:
as §2

The target of assay [7] is T7, PD1 naturally expressed by activated human lymphocytes (PHA-activated PBMC) (human, UniProt Q15116 25-288).
T7 construct: whole, on cells; Also used as the target for the mixed lymphocyte reaction (human T cells)
T7 sequence (Q15116 25-288): as above
In words: flow cytometry on PHA-activated human PBMC. How it is done:
After being obtained from fresh human peripheral blood by gradient centrifugation of lymphatic separation medium, the PBMCs were adjusted to the density of 1×10⁶ cells/mL and inoculated into T75, and meanwhile added with PHA-L (Sigma) at a final concentration of 1 μg/mL to stimulate the proliferation of lymphocytes. After being allowed to stand in an incubator at 37° C. and 5% CO₂ for 3 days, the cell suspension was taken out and centrifuged. […] The cells were washed once with the buffer, and added with a PE-labeled goat anti-human IgG fluorescent antibody (Biolegend), and incubated at 4° C. for 30 minutes.

The next assay deals with T8, human PD-1-hFc (human, UniProt Q15116 25-167).
T8 construct: Commercial protein; also called PD-1 (ACRO); not shown: human Fc (hFc)
T8 sequence (Q15116 25-167 limits assumed): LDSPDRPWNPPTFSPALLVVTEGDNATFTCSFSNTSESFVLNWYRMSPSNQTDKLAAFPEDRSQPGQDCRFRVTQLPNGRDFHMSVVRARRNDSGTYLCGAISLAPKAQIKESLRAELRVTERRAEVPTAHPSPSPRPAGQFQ
In words: ELISA, antigen coated at 1 µg/mL, antibody 10 µg/mL. The source says: (§3) The anti-PD-1 mouse monoclonal antibody was allowed to bind with four different member proteins of CD28 family to verify the specificity of the antibody in binding to PD-1. […] A horse radish peroxidase (HRP)-coupled anti-mouse IgG(Sigma) was used as the secondary antibody. After developed with TMB and terminated, it was read for an OD450 value with a microplate reader.

Assay [8] deals with T1, human CD28-hFc. Described as above.
Description: as §3

Assay [9] deals with T2, human ICOS-hFc. The description is as above.
Description: as §3

In assay [10] the target is T3, human CTLA4-hFc. The assay is described as above.
Description: as §3

The target in assay [11] is T9, PD-1-his (ACRO) recombinant protein (UniProt Q15116 25-167).
T9 construct: Commercial protein; not shown: his tag
T9 sequence (Q15116 25-167 limits assumed): as above
The assay is described as follows: BLI (ForteBio Octet), PD-1-his loaded on sensor, antibody in solution. How it is done:
Finally, analysis was conducted by utilizing a kinetic model.

Assay [12] concerns the target T5, recombinant human PD-1 expressed on the …. The assay is described as follows: flow cytometry, blocking of PD-L1-hFc binding to CHO-hPD1, mode 1 (ligand first). The method, then: (§4) The ability of the anti-PD-1 mouse monoclonal antibody to block the binding of the ligand to a PD-1 stably expressed on the surface of transfected CHO cells was analyzed by a flow cytometer.
(§5) The cells were centrifuged at 300 g for 5 minutes, washed once with the buffer, added with a PE-labeled goat anti-human IgG fluorescent antibody (Biolegend), and incubated at 4° C. for 30 minutes. The cells were centrifuged and washed once, then resuspended in PBS, and subsequently analyzed by a CytoFlex flow cytometer to detect the quantity of the ligand protein bound to the cells, and calculate the IC₅₀ value of the PD-1 antibody in blocking the binding.

For assay [13] the target is unchanged. The assay is described as follows: flow cytometry, blocking of PD-L2-hFc binding to CHO-hPD1, mode 1 (ligand first). How it is done:
as §4, §5

The target is the same in assay [14]. The assay is described as follows: flow cytometry, blocking of PD-L1-hFc binding to CHO-hPD1, mode 2 (antibody first). How it is done:
as §4, §5

Assay [15] has the same target. In words: flow cytometry, blocking of PD-L2-hFc binding to CHO-hPD1, mode 2 (antibody first). The method, then: as §4, §5

B1: anti-PD-1 mouse monoclonal antibody PD-1-112-C2 (antibody, V domains shown)
VH: QVQLQQPGAELVKPGASVKLSCKASGYTFTTYYMYWVKQRPGQGLEWIGGINPSNGGTNFNEKFKSKATLTVDKSSSTAYMQLSSLTSEDSAVYYCTRRDSNYDGGFDYWGQGTTLTVSS
VL: DIVLTQSPASLAVSLGQRATISCRASKSVSTSGYSYMHWYQQKPGQPPKLLIYLAYHLESGVPARFSGSGSGTDFTLNIHPVEEEDAATYYCQHSWELPITFGSGTKLEIKR
notes: Mouse monoclonal antibody from a hybridoma
Take B1: the binding result with human CD28-hFc [1] is on record as “no binding (tested: 10 µg/mL)”; in the assay with human ICOS-hFc [2], “no binding (tested: 10 µg/mL)”; in the assay with human CTLA4-hFc [3] it was “no binding (tested: 10 µg/mL)”; in [4] it was “no binding (tested: initial concentration of 10 µg/mL)”. The results for the EC50 in [5], in assay [6] and in [7] were 0.739 nM, 0.463 nM and 0.109 nM, respectively. Besides, the OD450 with human PD-1-hFc was determined as 2.12 OD450; in the assay with human CD28-hFc [8], 0.0625 OD450; with human ICOS-hFc [9], 0.062 OD450; in the assay with human CTLA4-hFc [10] it was 0.131 OD450. In addition, in assay [11], the Kd – broadly, the concentration at which binding is half-saturated – is 0.0435 nM. Also, the koff (in general, the first-order rate constant of dissociation) in assay [11] came to 3.18e-05 s⁻¹. Further, in assay [11], the kon (usually the rate constant with which the complex forms) was determined as 732000 M⁻¹ s⁻¹. In addition, the IC50 (commonly the concentration that gives 50% inhibition) in assay [12] was 2.57 nM; in [13], 4.61 nM; in assay [14], 1.55 nM; in assay [15], 3.73 nM.
